{
  "source": "patent US10947296B2",
  "about": "“Fusion protein Slit2D2(C386S)-HSA and use thereof in treatment of fibrotic diseases” (SUZHOU THINKING POWER BIOTECHNOLOGY CO., LTD., priority 2016, dated 2021)",
  "system": "pulmonary fibrosis model",
  "test": "Efficacy on bleomycin-induced pulmonary fibrosis model",
  "assay_type": "in vivo",
  "parameters": "body weight of the animals (Mean ± SEM) / Weight of the left lung (Mean ± SEM) / Volume of the left lung (Mean ± SEM): unit not given here",
  "conditions": "for Volume of the left lung (Mean ± SEM) / Weight of the left lung (Mean ± SEM): after formalin perfusion, day 14",
  "method": "Animals were anesthetized by inhaling isoflurane. After confirmation of anesthesia, the animals were sterilized, then the neck skin was cut, the muscles were bluntly separated to expose the trachea, and bleomycin (dosage: 3 mg/kg, volume: 1.0 mL/kg) was directly injected between the tracheal rings. After the operation, the animals were placed in a 37° C. electric blanket to keep warm until the animals were completely awakened. After confirming that they were able to eat and drink freely, the animals were returned to the cage for normal feeding.\nIn this experiment, there were four groups, i.e., model group (experimental group-1, […]), PFD group (experimental group-2, n=6), Slit2D2(C386S)-HSA-1 mg/kg (experimental group-3, n=6), and Slit2D2(C386S)-HSA-5 mg/kg (experimental group-4, n=6).\nIn this experiment, the positive control drug (PFD) was given to rats by gavage twice a day, which was started on the day of modeling, and administered continuously for 14 days. The test compound (Slit2D2(C386S)-HSA) was given intravenously once every other day, which was started on the day of modeling, and a total of seven doses were administered (as shown in table 6).\nPhysiological observation of the experimental animals: changes in body weight of the animals were measured (body weight was measured once a day before administration); and the death rate of animals during the test period was monitored.\nAnimals were euthanized 24 hours after the last administration on the 14th day of modeling. After confirming the death of the animals, the left lung was fixed by intrapulmonary infusion of formalin, and the volume and weight of the left lung after perfusion were measured for relevant examination of the pulmonary pathology.\nGeneral pathological examination: After the perfusion with an equal amount of formalin in the left lung, the wet weight of left lung after perfusion was weighed/recorded with a micro-balance; and the volume of left lung after perfusion was measured and recorded using a micro-measuring cup.\nPathological examination of lung tissue: The whole lung was dehydrated. Lung paraffin sections were made with paraffin blocks. […] HE staining and Masson Trichrome staining were performed according to pathological staining SOP, and whole section scanning was performed using a Digital Pathscope slice scanner. Pathological analysis and scoring of changes in damage and inflammation of terminal bronchioles and accompanying small pulmonary artery at the periphery of the lesions (as shown in Tables 7 and 8 and FIG. 7) were performed using the HE-stained sections. Lesion area calculation, lesion pathology analysis and scoring were performed with the Masson Trichrome-stained sections (as shown in Table 9 and FIG. 8).\nThe mean±sd or mean±sem was calculated using the graphpad prism software, and the significant difference test was performed using t-test, one-way ANOVA and two-way ANOVA test. A significant difference between the two groups was considered at p<0.05.",
  "data": [
    {"substance": "Slit2D2(C386S)-HSA: Fusion protein of the Slit2 D2 domain with C386S mutation linked to human serum albumin; amino acid sequence SEQ ID NO: 3", "values": [
      {"measurement": "inhibiting pulmonary fibrosis, compared with positive compound (PFD)", "setting": "5 mg/kg dose group, iv Q2D", "value": "superior to the positive compound (PFD)"},
      {"measurement": "Volume of the left lung (Mean ± SEM)", "setting": "1mpk (BID)", "value": "1.27 ± 0.02"},
      {"measurement": "Weight of the left lung (Mean ± SEM)", "setting": "1mpk (BID)", "value": "1.20 ± 0.03"},
      {"measurement": "body weight of the animals (Mean ± SEM)", "setting": "1mpk Q2D iv, Day 1", "value": "273.8 ± 3.1"},
      {"measurement": "body weight of the animals (Mean ± SEM)", "setting": "1mpk Q2D iv, Day 3", "value": "255.2 ± 3.2"},
      {"measurement": "body weight of the animals (Mean ± SEM)", "setting": "1mpk Q2D iv, Day 5", "value": "262.8 ± 4.7"},
      {"measurement": "body weight of the animals (Mean ± SEM)", "setting": "1mpk Q2D iv, Day 7", "value": "276.7 ± 5.4"},
      {"measurement": "body weight of the animals (Mean ± SEM)", "setting": "1mpk Q2D iv, Day 9", "value": "290.7 ± 6.3"},
      {"measurement": "body weight of the animals (Mean ± SEM)", "setting": "1mpk Q2D iv, Day 11", "value": "302.7 ± 6.9"},
      {"measurement": "body weight of the animals (Mean ± SEM)", "setting": "1mpk Q2D iv, Day 13", "value": "310.3 ± 7.8"},
      {"measurement": "Volume of the left lung (Mean ± SEM)", "setting": "5mpk (BID)", "value": "1.32 ± 0.03"},
      {"measurement": "Weight of the left lung (Mean ± SEM)", "setting": "5mpk (BID)", "value": "1.31 ± 0.07"},
      {"measurement": "body weight of the animals (Mean ± SEM)", "setting": "5mpk Q2D iv, Day 1", "value": "272.7 ± 1.8"},
      {"measurement": "body weight of the animals (Mean ± SEM)", "setting": "5mpk Q2D iv, Day 3", "value": "251.8 ± 2.3"},
      {"measurement": "body weight of the animals (Mean ± SEM)", "setting": "5mpk Q2D iv, Day 5", "value": "245.0 ± 5.0"},
      {"measurement": "body weight of the animals (Mean ± SEM)", "setting": "5mpk Q2D iv, Day 7", "value": "258.3 ± 4.4"},
      {"measurement": "body weight of the animals (Mean ± SEM)", "setting": "5mpk Q2D iv, Day 9", "value": "272.5 ± 5.0"},
      {"measurement": "body weight of the animals (Mean ± SEM)", "setting": "5mpk Q2D iv, Day 11", "value": "284.3 ± 5.9"},
      {"measurement": "body weight of the animals (Mean ± SEM)", "setting": "5mpk Q2D iv, Day 13", "value": "292.2 ± 5.6"},
      {"measurement": "inhibition on the progression of pulmonary fibrosis", "setting": "intravenous, every other day for 2 weeks, 1 and 5 mg/kg", "value": "significant inhibition on the progression of pulmonary fibrosis, with a dose-dependent trend"}
    ]}
  ]
}
